Bridge positions count the residues as written; N and C are the ends. Ends that are not written are not given here.
What was measured:
[1] = target: TSP-1 protein expressed by PMA-differentiated THP-1 macrophage-like cells (UniProt P07996 19-1170); assay: cell-based or functional assay
[2] = target: T1, TSP-1 protein (novoprotein, Catalog No. CU45) (UniProt P07996 19-1170, limits assumed); assay: competition ELISA, TSP-1 coated, CD36-Fc 0.25 µg/mL as competitor, peptide 100 µM
T1 construct: Bought protein coated on the ELISA plate; also called Thrombospondin-1
T1 sequence (P07996 19-1170 limits assumed): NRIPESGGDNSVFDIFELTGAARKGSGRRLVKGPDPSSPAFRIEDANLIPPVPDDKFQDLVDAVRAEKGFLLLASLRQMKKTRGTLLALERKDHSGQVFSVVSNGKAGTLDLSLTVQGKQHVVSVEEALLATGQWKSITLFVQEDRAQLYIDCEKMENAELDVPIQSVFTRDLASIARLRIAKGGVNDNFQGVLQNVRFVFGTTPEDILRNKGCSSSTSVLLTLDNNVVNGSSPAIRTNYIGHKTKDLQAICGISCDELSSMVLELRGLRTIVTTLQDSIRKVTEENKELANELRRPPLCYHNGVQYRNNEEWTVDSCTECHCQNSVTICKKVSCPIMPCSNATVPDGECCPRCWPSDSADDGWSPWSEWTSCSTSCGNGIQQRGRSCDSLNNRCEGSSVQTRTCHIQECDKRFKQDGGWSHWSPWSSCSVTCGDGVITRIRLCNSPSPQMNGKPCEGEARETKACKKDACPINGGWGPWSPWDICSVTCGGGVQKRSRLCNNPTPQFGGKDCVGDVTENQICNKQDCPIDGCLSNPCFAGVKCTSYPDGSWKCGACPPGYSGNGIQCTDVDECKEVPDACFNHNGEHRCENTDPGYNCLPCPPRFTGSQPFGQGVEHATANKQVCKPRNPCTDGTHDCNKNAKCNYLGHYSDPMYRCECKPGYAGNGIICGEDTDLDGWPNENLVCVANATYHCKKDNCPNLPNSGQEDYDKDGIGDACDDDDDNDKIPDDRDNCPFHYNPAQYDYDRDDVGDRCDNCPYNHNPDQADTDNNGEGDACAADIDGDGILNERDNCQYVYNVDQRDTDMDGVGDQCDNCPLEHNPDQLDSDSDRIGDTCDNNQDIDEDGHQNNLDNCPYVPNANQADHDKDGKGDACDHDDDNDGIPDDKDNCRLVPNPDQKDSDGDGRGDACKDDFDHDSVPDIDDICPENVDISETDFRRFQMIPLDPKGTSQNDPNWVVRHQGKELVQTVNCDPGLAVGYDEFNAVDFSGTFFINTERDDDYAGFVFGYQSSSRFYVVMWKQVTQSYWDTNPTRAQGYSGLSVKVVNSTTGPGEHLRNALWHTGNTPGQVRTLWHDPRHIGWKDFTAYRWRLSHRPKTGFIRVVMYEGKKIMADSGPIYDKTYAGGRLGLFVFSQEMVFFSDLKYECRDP
Description: (§1) ELISA assay was performed to detect the ability of the polypeptides to block the binding of TSP-1 protein to CD36, a TSP-1 receptor protein. TSP-1 protein (novoprotein, Catalog No. CU45) was diluted to 2 μg/mL using 100 mM carbonate buffer and added to sample wells (100 μL/well) of a 96-well ELISA plate (Thermo, Catalog No. 437111), and incubated overnight at 4° C.; after washing the plate twice using 1×PBST wash solution, 200 μL of 1.5% BSA (Sigma, Catalog No. B2064) was added to each well, and incubated at 37° C. for 2 h; after washing the plate 3 times using 1×PBST wash solution, the analytes were added (100 μL/well, 3 replicate wells; for the control group, 0.25 μg/mL of Fc-tagged CD36 protein (R&D Systems, Catalog No. 1955-CD-050); and for the polypeptide-treated groups, a mixture containing Fc-tagged CD36 protein and polypeptide at final concentrations of 0.25 μg/mL and 100 μM, respectively), and incubated at 37° C. for 3 h. After washing the plate 5 times using 1×PBST wash solution, a 1:500 dilution solution of FITC-labeled anti-Fc-tagged antibody (Beyotime, Catalog No. A0556) was added, and incubated for 1 h at 37° C.; after washing the plate 5 times using 1×PBST wash solution, a multifunctional ELISA instrument (TECAN, model: Infinite 200 Pro) was used to detect the intensity of FITC fluorescence signal in each sample well. The ability of the polypeptides to block CD36 binding to TSP-1 protein (Table 2-1) was assessed by calculating the ratio of the fluorescence signal from the polypeptide-treated groups to that of the control group, allowing for the determination of the blocking rate of the polypeptides in inhibiting CD36 binding to TSP-1 protein, i.e., (fluorescence signal of the control group-fluorescence signal of the polypeptide-treated group)/fluorescence signal of the control group×100%. Based on the blocking rate results obtained at the single concentration and on the polypeptide molecule properties, the preferred polypeptide molecules were assayed for concentration dependence (at 0 μM, 0.5 μM, 1 μM, 5 μM, 10 μM, and 100 μM), and IC₅₀ values of the polypeptides for blocking CD36 binding to TSP-1 protein were determined to further assess the abilities of the preferred polypeptide molecules to block the binding of CD36 to TSP-1 (Table 2-2).

[3] = target: T1, TSP-1 protein (novoprotein, Catalog No. …); assay: competition ELISA, TSP-1 coated, CD36-Fc as competitor, peptide 0-100 µM
Description: as §1

Chain of TSP-1 protein expressed by PMA-differentiated THP-1 macrophage-like cells (P07996 19-1170 limits assumed): as above

Mean (relative fluorescence intensity), 293-TGFβ Res reporter cells [1] | Blocking rate (Mean, %) [2] [%] | IC50 [3] [µM] | Binder
0.74 ratio to negative control | 40.9 | 7.2 | Ac-TQDAEDPTA-NH2 [SEQ ID NO: 22]
0.77 ratio to negative control | 37.5 | 7.7 | TQDAEDN (Head-to-tail cyclization, cyclic peptide; also called TQDAEDN; cyclo[Thr-Gln-Asp-Ala-Glu-Asp-Asn]) [SEQ ID NO: 40]
0.78 ratio to negative control |  |  | Ac-TQDAEDNTV-NH2 [SEQ ID NO: 17]
0.77 ratio to negative control |  |  | Ac-TQDAED-NH2 [SEQ ID NO: 04]
 | 29.7 | 11.7 | Ac-TQDPAEDN-NH2 [SEQ ID NO: 48]
0.7 ratio to negative control |  |  | Ac-TQDPED-NH2 [SEQ ID NO: 03]
0.83 ratio to negative control | 23.1 | 4.85 | Ac-TQDAEDNTVSFLQ-NH2 [SEQ ID NO: 36]
0.67 ratio to negative control | 21.4 | 14.3 | Ac-TQDAEDNTASH-NH2 [SEQ ID NO: 33]
 | 30.2 | 10.1 | Ac-TQDAEDNTQD-NH2 [SEQ ID NO: 49]
0.65 ratio to negative control | 17.7 | 12.7 | Ac-TQDAEDN-NH2 (also called TQDAEDN) [SEQ ID NO: 06]
0.7 ratio to negative control | 27.9 | 4.76 | Ac-TQDPEDN-NH2 (also called TQDPEDN) [SEQ ID NO: 14]
0.57 ratio to negative control | 32.6 | 10.6 | Ac-TQDAEDNTAS-NH2 [SEQ ID NO: 24]
0.68 ratio to negative control | 53.8 | 3.4 | Ac-TQDPEDNTAS-NH2 [SEQ ID NO: 26]
0.69 ratio to negative control | 56.1 | 1.4 | TQDPEDNTAS (Head-to-tail cyclization, cyclic peptide) [SEQ ID NO: 46]
0.73 ratio to negative control | 33 | 7.4 | Ac-TQDAEDPTAS-NH2 [SEQ ID NO: 25]
0.79 ratio to negative control |  |  | Ac-TQDAEDNTASF-NH2 [SEQ ID NO: 31]
0.67 ratio to negative control |  |  | TQDAEDNK (lactam 3-8) [SEQ ID NO: 42]
0.62 ratio to negative control |  |  | TQDPEDN (Head-to-tail cyclization) [SEQ ID NO: 41]
 | 22.8 | 22.9 | Ac-QDAEDNTAS-NH2 [SEQ ID NO: 23]
0.84 ratio to negative control | 23.4 | 10.6 | YRVRFLAKENVTQDAEDN (Printed as 'Without modification'; also called Positive control group) [SEQ ID NO: 50]
0.83 ratio to negative control |  |  | Ac-QDAEDN-NH2 [SEQ ID NO: 05]
0.8 ratio to negative control |  |  | Ac-TQDPAED-NH2 [SEQ ID NO: 47]
 | 30.6 | 5.65 | Ac-TQDAEDNT-NH2 [SEQ ID NO: 15]
0.52 ratio to negative control | 46 | 5.96 | QDAEDNT (Head-to-tail cyclization, cyclic peptide; also called QDAEDNT; cyclo[Gln-Asp-Ala-Glu-Asp-Asn-Thr]) [SEQ ID NO: 45]

— patent US20250388623A1 (CHENGDU BRILLIANT INSPIRATION BIOTHERAPEUTICS, published 2025)
